Results from article PMC2175313.

Assays:
C.PvuII [1] = assay: competition
C.PvuII [2] = assay: EMSA

Substance | binding signal (% loss of shifted WWWW band) (C.PvuII [1]) | K half (C.PvuII [2]) [nM]
WWRR C-box 126-mer (OL intact) | 95 | 
WWWW C-box 126-mer (symmetrized, spacer TGTA) |  | 200
